Test: yeast display, Sf9 membrane polyspecificity reagent, FACS + sequencing; frameworks hold sequencing errors
Outline: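 Using colony PCR, genes from sorted yeast display clones were amplified, then sequenced on MiSeq at 2 × 250 and filtered by CDR length. The clones had been stained with 10% biotinylated, detergent-solubilized Sf9 membrane reagent for 1 hour at 4 °C and sorted by FACS into low and high (top ~1%) gates on anti-HA and streptavidin fluorescence. Polyreactivity labels come from the gate of origin.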

Row | Sequence | polyreactivity (PSR sort gate)
1 | QVQLVESGGGLVQAGGSLRLSCAASGSIFGTYAMGWYRQAPGNERELVAAITGNGGRTYYADSVKGRFTISRDNAKNTVYLQMNSLKPEDTAVYYCAKATSRRGFYYWGQGTQVTVSS | high polyreactivity
2 | QVQLVESGGGLVQAGGSLRLSCAASGSIFGVNAMGLYRQAPGKERELVASISLSDDRTYYADSVKGRFTISRDNAKNTVYLQMNSLKPEDTAVYYCARRILWYWDVYPSLAEYDYWGQGTQVTVSS | low polyreactivity
3 | QVQLVESGGGLVQAGGSLRLSCAASGSIFGVNAMGWYRQAPGKERELVAAISSGGSTNYADSVKGRFTISRDNAKNTVYLQMNSLKPEDTAVYYCAADTNTRSNYDYWGQGTQVTVSS | low polyreactivity
4 | QVQLVESGGGLVQAGGSLRLSCAASGSIFGVNTMGWYRQAPGKERELVAAISSGGNTHYADSVKGRFTISRDNAKNTVYLQMNSLKPEDTAVYYCAAAYVGIYYVSRRRWERYYYWGQGTQVTVSS | high polyreactivity
5 | QVQLVESGGGLVQAGGSLRLSCAASGSIFGVYAMGWYRQAPGKEREFVAAITKRGGSTYYADSVKGRFTISRDNAKNTVYLQMNSLKPEDTAVYYCAARYGRYISSRYGSWGQGTQVTVSS | high polyreactivity
6 | QVQLVESGGGLVQAGGSLRLSCAASGSIFGVYAMGWYRQAPGKERELVAAINSGGTTYADSVKGRFTISRDNAKNTVYLQMNSLKPEDTAVYYCNADRWGPEDPYRVRDRFDYWGQGTQVTVSS | low polyreactivity
7 | QVQLVESGGGLVQAGGSLRLSCAASGSIFGVYAMGWYRQAPGTERELVAAISSRGSSTYYADSVKGRFTISRDNAKKTVYLQMLSLKPEDTAVYYCAARPGIRSYPPGYGYWGQGTQGTVSS | high polyreactivity
8 | QVQLVESGGGLVQAGGSLRLSCAASGSIFGVYTMGWYRQAPGKERELVAAISGSGGSTYYADSVKGRFTISRDNAKNTVYLQMNSLKPEDTAVYYCATRFPKIPPYDSWGQGTQVTVSS | low polyreactivity
9 | QVQLVESGGGLVQAGGSLRLSCAASGSIFGVYVMGWYRQAPGKERELVAAITRGASTNYADSVKGRFTISRDNAKNTVYLQMNSLKPEDTAVYYCAADGWYSAVGVWLEYDYWGQGTQVTVSS | low polyreactivity
10 | QVQLVESGGGLVQAGGSLRLSCAASGSIFGWNAMGWYRQAPGKERELVAAISSGGSTYYADSVKGRFTISRDNAKNTVYLQMNSMKPEDPAVYYCNAYFQYYDYWGQGTQVTVSS | low polyreactivity
11 | QVQLVESGGGLVQAGGSLRLSCAASGSIFGWYAMGWYRQAPGKERELVAAIDSATSTDYADSVKGRFTISRDNAKNTVYLQMNSLKPEDTAFYYCAVYSCWIDAEYDYWGQGTQVTGSS | low polyreactivity
12 | QVQLVESGGGLVQAGGSLRLSCAASGSIFGWYVMGWYIQAPGKERELVAAISSVGSTYYADSVKGRFTISRDNAKNTVYLQMKSLKPEDTAVYYCAKLRYPYLFWDDSEYWGQGTQVTVSS | low polyreactivity
13 | QVQLVESGGGLVQAGGSLRLSCAASGSIFGWYVMGWYRQAPGKERELVAAISSVGSTYYADSVKGRFTISRDNAKNTVYLQMNSLKPEDTAVYYCAKLRYPYLFWDDSEYWGQGTQVTVSS | low polyreactivity
14 | QVQLVESGGGLVQAGGSLRLSCAASGSIFGYNAMGWSRQAPGKERELVAGITSGTSTYYADSVKGRFTISRDNAKYTVYLQMNSLKPEDTEVYYCARTSYRFYRKRYYWGQGTQVTVSS | high polyreactivity
15 | QVQLVESGGGLVQAGGSLRLSCAASGSIFGYNAMGWYRQAPGIERELVAAISSGGNTYYADSVKGRFTISRDNAKNTVYLQMNSLKPEDTAVYYCAVDYYYGFDWGQGTQVTVSS | low polyreactivity
16 | QVQLVESGGGLVQAGGSLRLSCAASGSIFGYNAMGWYRQAPGKDREFVAAIRWSSGSTYYADSVKGRFTISRDNAKNTVYLQMNSLKPEDTAVYYCATRQTYLYWGQGTQVTVSS | high polyreactivity
17 | QVQLVESGGGLVQAGGSLRLSCAASGSIFGYNAMVWYRQAPGKESELVAAIRYSGGRTYYADSVKGRFTISRDNAKNSVYLQMNSLKPEDTAVYYCAAPIKFYRYGYTRYDYWGQCTQVTVSS | high polyreactivity
18 | QVQLVESGGGLVQAGGSLRLSCAASGSIFGYNDMGWYRQAPGKERELVAAIDWSDDITYYADSVKGRFTISRDNAKNTVYLQMNSLKPEDTAVYYCATKIRLALYFGYVSEYDYWGQGTQVTVSS | high polyreactivity
19 | QVQLVESGGGLVQAGGSLRLSCAASGSIFGYNPMGWYIQAPGKERELVAAISRSGGRTYYADSVKGRFTISRDNAKNTVYLQMNSLKPEDTAVYDCAAPVWRYYRGKTFDYWGQGTQVTVSS | high polyreactivity
20 | QVQLVESGGGLVQAGGSLRLSCAASGSIFGYNTMGRYRQAPGKERELVAAISYRGGSTYADSVKGRFTISRDNAKNTVYLQMNSLKPEDTAVYYCAKRSIVGYRYSGYDYWGQGTQVTVSS | high polyreactivity
21 | QVQLVESGGGLVQAGGSLRLSCAASGSIFGYNTMGWSRQAPGKERELVASISYSGGSTYYADSVKGRFTISRDNAKNTVYLQMNSLKPEDTAVYYCNTGSRYRPNRRYGYWGQGTQVTVSS | high polyreactivity
22 | QVQLVESGGGLVQAGGSLRLSCAASGSIFGYNVMGWYRQAPGKERELVAGITSGGSTNYADSVKGRFTISRDNAKNTVYVQMNSLKPEDTAVYYCNAEGVFGDGRSGFYWYDYWGQGTQVTVSS | low polyreactivity

Row | Sequence | polyreactivity (PSR sort gate)
23 | QVQLVESGGGLVQAGGSLRLSCAASGSIFGYYALGWYRQAPGKERELVAAITSVGSTYYADSVKGRFTISRDNAKKTVSLQMNSLKPEDTAVYYCATRFWFRSLRSSYYYWGQGTQVTVSS | high polyreactivity
24 | QVQLVESGGGLVQAGGSLRLSCAASGSIFGYYAMGWSRQAPGKERELVAAISKSGGRTYYADSVKGRFTISRDNAKNTVYLQMNSLKPEDTAVYYCAAVLWYDIYYGGDYWGQGTQVTVSS | high polyreactivity
25 | QVQLVESGGGLVQAGGSLRLSCAASGSIFGYYAMGWYRQAPGKERELVAAISSGGSTKYADSVKGRFTISRDNAKNTVYLQMNSLKPEDTAVYYFNAAYSQIRFNYRGQGTQVTVSS | high polyreactivity
26 | QVQLVESGGGLVQAGGSLRLSCAASGSIFGYYAMGWYRQAPGKERELVAAISTSGGRTYYADSVKGRFTISRDNAKNTVYFQMNSLKPEDTAVYYCAARVYSTSVVAYYYWGQGTQVTVSS | high polyreactivity
27 | QVQLVESGGGLVQAGGSLRLSCAASGSIFGYYAMGWYRQAPGKERELVAAISWSGGRTYYADSVKGRFTISRDNAKNTVYLQMNSLKPEDTAVYYCNARWRSGPRAYDYWGQGTQVSVSS | high polyreactivity
28 | QVQLVESGGGLVQAGGSLRLSCAASGSIFGYYTMGWYRQAPGKERELVAAITRSGATTFYADSVKGRFTISRDNAKNTVYLQMNSLKPEDTAVYYCAAKARGYTRGYWGQGTQVTVSS | high polyreactivity
29 | QVQLVESGGGLVQAGGSLRLSCAASGSIFGYYTMGWYRQAPGKERELVARITRGGSTYYADSVKGRFTISRDNAKNTVYLQMNSLYPEDTSVYYCNAEIWTEGGYWGQGSQVTVSS | low polyreactivity
30 | QVQLVESGGGLVQAGGSLRLSCAASGSIFGYYTMGWYRQAPGKERELVATINWSGGNTYYADSVKGRFTISRDNAKNTVYLQMNSLKPEDTAVYYCATRPRRGTSENGYWGQGTQVTVSS | high polyreactivity
31 | QVQLVESGGGLVQAGGSLRLSCAASGSIFGYYTMGWYRQAPGKERELVATISRSGGSTYYADSVKGRFTISRDNAKNTVYLQMNSLKPEDTAVYYCAARSWGGYDSRGYWGQGTQVTVSS | high polyreactivity
32 | QVQLVESGGGLVQAGGSLRLSCAASGSIFGYYVMGWYRQAPGKERELVAAISGSDSSTYYADSVKGRFTISRDNAKNTVYLQMNSLKPEDTAVYYCNADLRYYPVEFDYWGQGTQVTVSS | low polyreactivity
33 | QVQLVESGGGLVQAGGSLRLSCAASGSIFHDYAMGWYRQEHGKERELVAVISTSGGSTYYADSVKGRFTISRDNAKNTDYLQMNSLKPEYTAVYYCNARTVGPYPSQAALEYDSGGQGTQVTVSS | low polyreactivity
34 | QVQLVESGGGLVQAGGSLRLSCAASGSIFHGNAMGWNRQAPGKERELVATISSGGSTYYADSVKGRFTISRDNAKNTVYLQMNSLKPEDTAVYYCAAEYWNGPYYGDPFEYDYWGQGTQVTVSS | low polyreactivity
35 | QVQLVESGGGLVQAGGSLRLSCAASGSIFHGYAMGWYRHAPGKERELVAAITWSGGRTYYADSVKGRFTISRDNAKNNVYLQMNSLKPEDTAVYYCAAVALTRRYDYWGQGTQVTVSS | high polyreactivity
36 | QVQLVESGGGLVQAGGSLRLSCAASGSIFHGYAMGWYRQAHGKETELVAVITRGGNTYYADSVKGRFTISRDNAKNTVYLQMNSLKPEDTAVYYCNKAVDRGRRAYGYWGQGTQVTVSS | high polyreactivity
37 | QVQLVESGGGLVQAGGSLRLSCAASGSIFHGYGMGWYRPAPGKERELVASITWIGGDTYYADSVKGRFTISRDNAKNTVYLQMNSLKPEDTAVYYCNAEWVVTYIYDYWGQGTQVTVSS | low polyreactivity
38 | QVQLVESGGGLVQAGGSLRLSCAASGSIFHINAMGWYRQAPGKERELVAAISSADRTYYADSVKGRFTISRDNAMNTVYLQMNSLKPEDTAVYYCAAVYYRYPYEYWGQGTQVTVSS | high polyreactivity
39 | QVQLVESGGGLVQAGGSLRLSCAASGSIFHPNAMGWYRQAPGKERELVAAISIGGDTYYADSVKGRFTISRDNAKNTVYLQMNSLKPEDTAVYYCAVTYVGHVYEYYYWGQGTQVTVSS | low polyreactivity
40 | QVQLVESGGGLVQAGGSLRLSCAASGSIFHQYAMGWYRQAPGKERELVAAISANGGRTYYADSVKGRFTISRDNAKNTVYLQMNSLIPEDTAVYYCAASRPSYGVRYGYWGQGTQVTGSS | high polyreactivity
41 | QVQLVESGGGLVQAGGSLRLSCAASGSIFHRNTMGWYRQAPGKERELVAAIRRGGSTYYADSVKGRFTISRDNAKNTVYLQMNSLKPEDTAVYYCAADFPGEYYYWGQGTQVTVSS | high polyreactivity
42 | QVQLVESGGGLVQAGGSLRLSCAASGSIFHRYAMGWYRQAPGKERELVAAISWRGSSTYYADSVKGRFTISRDNAKNTVYLQMNSLKPEDTAVYYCNARGGSRRRYDYWGQGTQVTVSS | high polyreactivity
43 | QVQLVESGGGLVQAGGSLRLSCAASGSIFHTYAMGWYRQAPGKEWELVAAISTDGSTYYADSVKGRFTISRDNAKNTVYLQRNSLKPEDTAVYYCNVAAKYDSFHRGITWYDYWGQGTQVTVSS | low polyreactivity

Reference: the nanobody polyreactivity screen of Harvey et al. (2022)
